This note sets out measurements from paper PMC10341776.

In the experiment the target is chloroplast FOF1-ATP synthase from spinach chloroplasts (spinach (Spinacia oleracea)) (UniProt P06450). Put plainly: SAXS; AEX-purified cFOF1 dialysed overnight against 30 mM HEPES, 2 mM MgCl2, 0.04% (w/v) tPCC-α-M, 450 mM NaCl; room temperature; fit with a mixture of monomers and docked dimers (OLIGOMER); monomer to dimer.

Usually stoichiometry N stands for a count of units in the complex or per binding partner. Consider “chloroplast FOF1-ATP synthase from spinach chloroplasts, P06450 1-507; P00825 1-498; P05435 42-364; P00833 1-134; P11402 71-257; P06451 1-247; P06453 1-184; P31853 76-222; P69447 1-81”, for which the fraction of dimeric cFOF1 (model with F1/F1 dimers) amounted to 68% and the stoichiometry N was determined as 2.
